Km, kcat and kcat/Km data for two proteins are collected here from PMC7509987.

Format in all cases: biochemical
Holding throughout (conditions): pH 7.0; 22.0 °C

Substrate in data set [1]: NCC[Se][Se]CCN
Substrate in data set [2]: O=C(O)c1cc(SSc2ccc([N+](=O)[O-])c(C(=O)O)c2)ccc1[N+](=O)[O-]
Substrate in data set [3]: NCC[Se][Se]CCN
This is another data set of the same source.

Substrate in data set [4]: O=C(O)c1cc(SSc2ccc([N+](=O)[O-])c(C(=O)O)c2)ccc1[N+](=O)[O-]
The source holds these as a separate data set.

Like-named read-outs stand apart in the source and are kept apart here.

B1: mTrxRΔ3 (Mus musculus) (protein)
chain: GGQQSFDLLVIGGGSGGLACAKEAAQLGKKVAVADYVEPSPRGTKWGLGGTCVNVGCIPKKLMHQAALLGGMIRDAHHYGWEVAQPVQHNWKTMAEAVQNHVKSLNWGHRVQLQDRKVKYFNIKASFVDEHTVRGVDKGGKATLLSAEHIVIATGGRPRYPTQVKGALEYGITSDDIFWLKESPGKTLVVGASYVALECAGFLTGIGLDTTVMMRSIPLRGFDQQMSSLVTEHMESHGTQFLKGCVPSHIKKLPTNQLQVTWEDHASGKEDTGTFDTVLWAIGRVPETRTLNLEKAGISTNPKNQKIIVDAQEATSVPHIYAIGDVAEGRPELTPTAIKAGKLLAQRLFGKSSTLMDYSNVPTTVFTPLEYGCVGLSEEEAVALHGQEHVEVYHAYYKPLEFTVADRDASQCYIKMVCMREPPQLVLGLHFLGPNAGEVTQGFALGIKCGASYAQVMQTVGIHPTCSEEVVKLHISKRSGLEPTVTG
With B1, in data set [1], the Km amounted to 1033 ± 114 µM, the kcat was found to be 1.27 ± 0.0667 s⁻¹ and the specificity constant (kcat/Km) came out at 1220 M⁻¹ s⁻¹. In addition, in data set [2], the Michaelis-Menten constant (Km) was found to be 12 ± 2.7 µM, the turnover number (kcat) stood at 48.3 ± 8.33 s⁻¹ and the kcat/Km worked out at 4e+06 M⁻¹ s⁻¹.

B2: mTrxR-CUG (Mus musculus) (protein)
chain: GGQQSFDLLVIGGGSGGLACAKEAAQLGKKVAVADYVEPSPRGTKWGLGGTCVNVGCIPKKLMHQAALLGGMIRDAHHYGWEVAQPVQHNWKTMAEAVQNHVKSLNWGHRVQLQDRKVKYFNIKASFVDEHTVRGVDKGGKATLLSAEHIVIATGGRPRYPTQVKGALEYGITSDDIFWLKESPGKTLVVGASYVALECAGFLTGIGLDTTVMMRSIPLRGFDQQMSSLVTEHMESHGTQFLKGCVPSHIKKLPTNQLQVTWEDHASGKEDTGTFDTVLWAIGRVPETRTLNLEKAGISTNPKNQKIIVDAQEATSVPHIYAIGDVAEGRPELTPTAIKAGKLLAQRLFGKSSTLMDYSNVPTTVFTPLEYGCVGLSEEEAVALHGQEHVEVYHAYYKPLEFTVADRDASQCYIKMVCMREPPQLVLGLHFLGPNAGEVTQGFALGIKCGASYAQVMQTVGIHPTCSEEVVKLHISKRSGLEPTVTGCUG
On to B2, for which, in data set [3], the Michaelis-Menten constant (Km) is 79 ± 0.7 µM, the kcat amounted to 62.3 ± 7.5 s⁻¹ and the kcat/Km was 783000 M⁻¹ s⁻¹. Moreover, in data set [4], the Michaelis-Menten constant (Km) was found to be 3 ± 0.7 µM, the kcat stood at 52.8 ± 7.5 s⁻¹ and the kcat/Km was 1.83e+07 M⁻¹ s⁻¹.

The Km is the substrate concentration at which the rate is half of its maximum. In general, kcat refers to the number of substrate molecules converted per active site and unit of time at saturation. As a reminder, the kcat/Km is the second-order rate constant that governs catalysis at low substrate concentration.
